# In publication PMC11151596, “Improving the enzymatic activity and stability of N-carbamoyl hydrolase using deep learning approach” (Microbial Cell Factories, 2024):
# B1: DCase (N-carbamoyl-D-amino acid amidohydrolase, EC 3.5.1.77; N-carbamoyl hydrolase) (Agrobacterium sp. KNK712) (protein)
# chain: MTRQMILAVGQQGPIARAETREQVVVRLLDMLTKAASRGANFIVFPELALTTFFPRWHFTDEAELDSFYETEMPGPVVRPLFEKAAELGIGFNLGYAELVVEGGVKRRFNTSILVDKSGKIVGKYRKIHLPGHKEYEAYRPFQHLEKRYFEPGDLGFPVYDVDAAKMGMFICNDRRWPEAWRVMGLRGAEIICGGYNTPTHNPPVPQHDHLTSFHHLLSMQAGSYQNGAWSAAAGKVGMEENCMLLGHSCIVAPTGEIVALTTTLEDEVITAAVDLDRCRELREHIFNFKQHRQPQHYGLIAEL
# notes: pET-28a(+)-Case, N- and C-terminal His6 tags, expressed in E. coli BL21(DE3), Ni-NTA purified, about 37 kDa
# Substrate: NC(=O)NC(C(=O)O)c1ccc(O)cc1
# Test: HPLC of D-HPG formed, double reciprocal plot
# Type: biochemical, Agrobacterium sp. KNK712
# Details: 50 mM Tris-HCl pH 7.5, 65 °C, 0.1-10.0 mM CpHPG
# Excerpt: HPLC of D-HPG formed, double reciprocal plot on DCase (N-carbamoyl-D-amino acid amidohydrolase, EC 3.5.1.77; N-carbamoyl hydrolase)
protein,measurement,value
B1,Km,2590 ± 220 µM
same,kcat,7.98 ± 0.212 s⁻¹
same,kcat/Km,3080 ± 218 M⁻¹ s⁻¹
